According to US9327008B2, “Cell-permeant peptide-based inhibitor of kinases” (Purdue Research Foundation, priority 2008, dated 2016):

How the values were obtained:
Type in all cases: biochemical
[1] = biological target: T1, c-Kit (Homo sapiens, UniProt P10721); experiment: Millipore radiometric kinase activity assay, c-Kit (h)
T1 construct: purchased Millipore (assay service)
Experimental: (§1) A commercial radiometric assay service (Millipore, Billerica, Mass.) was used to test the specificity and potency of peptides containing a coupled transduction domain and therapeutic domain, hereinafter “complete peptides”). In these assays, if the kinase is not inhibited by an inhibitor peptide, a positively charged substrate is phosphorylated with a radiolabeled phosphate group from an ATP.
(§2) In a final reaction volume of 25 μL, c-Kit (h) (5-10 mU) is incubated with 8 mM MOPS pH 7.0, 0.2 mM EDTA, 10 mM MnCl2, 0.1 mg/mL poly(Glu, Tyr) 4:1, 10 mM MgAcetate and [γ-^33P-ATP] (specific activity approx. 500 cpm/pmol, concentration as required). The reaction is initiated by the addition of the MgATP mix. After incubation for 40 minutes at room temperature, the reaction is stopped by the addition of 5 μL of a 3% phosphoric acid solution. 10 μL of the reaction is then spotted onto a Filtermat A and washed three times for 5 minutes in 75 mM phosphoric acid and once in methanol prior to drying and scintillation counting.
(§3) IC50 values for inhibitor peptides were determined using Millipore's IC50Profiler Express service. The IC50 value was estimated from a 10-point curve of one-half log dilutions. For peptides tested for specificity, the concentration of the peptides that inhibited approximately 95% of MK2 activity was chosen to profile against a battery of kinases related to MK2, cell viability, or human disease from MilliporeKinaseProfiler service. In both assays, compounds were supplied in dimethylsulfoxide (DMSO). Every kinase activity measurement was conducted in duplicate.
(§4) Therapeutic inhibitor peptides were assayed for activity against human kinases related to MK2, cell viability, or human disease. The assays were performed using concentrations of therapeutic inhibitor peptides that yielded 2% to 8% of normal MK2 activity. Error is reported as the standard deviation between 2 samples, and “c” is rat AMPK whereas all other kinases used are human kinases.

[2] = biological target: T2, EphA2 (Homo sapiens, UniProt P29317); experiment: Millipore radiometric kinase activity assay, EphA2 (h)
T2 construct: purchased Millipore (assay service)
T2 sequence (P29317 24-976): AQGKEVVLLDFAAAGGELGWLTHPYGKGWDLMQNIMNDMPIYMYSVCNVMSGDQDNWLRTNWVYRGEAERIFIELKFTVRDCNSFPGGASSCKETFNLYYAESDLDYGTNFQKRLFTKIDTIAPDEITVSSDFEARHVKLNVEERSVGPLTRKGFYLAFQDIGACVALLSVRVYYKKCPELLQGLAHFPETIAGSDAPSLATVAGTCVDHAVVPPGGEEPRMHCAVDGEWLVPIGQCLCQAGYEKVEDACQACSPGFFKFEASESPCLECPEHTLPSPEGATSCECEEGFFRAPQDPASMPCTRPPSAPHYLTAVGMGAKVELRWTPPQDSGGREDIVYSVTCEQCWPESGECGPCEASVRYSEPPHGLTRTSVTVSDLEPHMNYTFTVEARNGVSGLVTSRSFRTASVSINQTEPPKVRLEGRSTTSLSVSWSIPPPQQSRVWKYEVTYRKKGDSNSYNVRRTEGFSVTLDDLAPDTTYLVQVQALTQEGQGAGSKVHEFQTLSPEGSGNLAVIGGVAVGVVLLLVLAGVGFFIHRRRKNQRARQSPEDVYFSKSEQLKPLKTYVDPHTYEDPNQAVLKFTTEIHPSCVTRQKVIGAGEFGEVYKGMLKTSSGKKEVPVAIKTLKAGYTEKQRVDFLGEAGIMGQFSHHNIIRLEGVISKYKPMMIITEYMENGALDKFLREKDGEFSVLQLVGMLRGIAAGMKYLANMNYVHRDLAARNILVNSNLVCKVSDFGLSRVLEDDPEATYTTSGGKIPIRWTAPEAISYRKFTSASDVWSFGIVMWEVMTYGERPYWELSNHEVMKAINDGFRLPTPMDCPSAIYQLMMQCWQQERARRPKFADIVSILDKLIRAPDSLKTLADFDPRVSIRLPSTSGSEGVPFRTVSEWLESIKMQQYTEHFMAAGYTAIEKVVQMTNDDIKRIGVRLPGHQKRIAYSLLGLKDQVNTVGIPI
Experimental: as §1
as §2, with “EphA2” for “c-Kit”, “EDTA,” for “EDTA, 10 mM MnCl2,”
as §3, §4

[3] = biological target: T3, LIMK1 (Homo sapiens, UniProt P53667); experiment: Millipore radiometric kinase activity assay, LIMK1 (h)
T3 construct: purchased Millipore (radiometric assay service)
T3 sequence (P53667 whole entry): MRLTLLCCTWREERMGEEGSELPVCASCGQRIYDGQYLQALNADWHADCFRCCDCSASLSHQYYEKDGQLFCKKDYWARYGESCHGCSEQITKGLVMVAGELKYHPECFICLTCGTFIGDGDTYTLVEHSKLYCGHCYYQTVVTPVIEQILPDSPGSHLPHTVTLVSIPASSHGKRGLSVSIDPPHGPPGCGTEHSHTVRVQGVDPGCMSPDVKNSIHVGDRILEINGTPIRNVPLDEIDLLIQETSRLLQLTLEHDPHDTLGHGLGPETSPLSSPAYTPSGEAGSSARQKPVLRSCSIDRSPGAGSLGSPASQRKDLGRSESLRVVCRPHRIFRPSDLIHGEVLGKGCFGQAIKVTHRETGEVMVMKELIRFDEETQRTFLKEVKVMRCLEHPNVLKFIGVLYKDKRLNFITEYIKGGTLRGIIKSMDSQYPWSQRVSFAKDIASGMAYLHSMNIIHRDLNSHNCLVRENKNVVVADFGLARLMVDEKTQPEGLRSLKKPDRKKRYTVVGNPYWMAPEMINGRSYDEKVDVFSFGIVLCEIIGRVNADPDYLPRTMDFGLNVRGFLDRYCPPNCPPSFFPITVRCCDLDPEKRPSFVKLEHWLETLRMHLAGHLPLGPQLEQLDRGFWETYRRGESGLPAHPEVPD
Experimental: as §1
as §2, with “LIMK1” for “c-Kit”, “0.6” for “10 mM MnCl2, 0.1”, “cofilin,” for “poly(Glu, Tyr) 4:1,”, “P30 filtermat” for “Filtermat A”
as §3, §4

[4] = biological target: T4, Pim-1 (Homo sapiens, UniProt P11309); experiment: Millipore radiometric kinase activity assay, Pim-1 (h)
T4 construct: purchased Millipore (radiometric assay service)
T4 sequence (P11309 whole entry): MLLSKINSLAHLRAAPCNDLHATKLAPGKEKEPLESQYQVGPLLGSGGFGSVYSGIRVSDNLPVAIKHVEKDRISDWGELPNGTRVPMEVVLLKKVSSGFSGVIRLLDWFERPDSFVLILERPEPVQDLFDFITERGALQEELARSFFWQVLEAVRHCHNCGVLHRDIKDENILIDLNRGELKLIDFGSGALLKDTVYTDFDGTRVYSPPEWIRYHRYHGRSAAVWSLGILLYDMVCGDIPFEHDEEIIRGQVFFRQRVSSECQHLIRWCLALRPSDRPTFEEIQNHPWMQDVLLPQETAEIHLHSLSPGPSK
Experimental: as §1
as §2, with “Pim-1” for “c-Kit”, “100 μM […] [SEQ ID NO: 59],” for “10 mM MnCl2, 0.1 mg/mL poly(Glu, Tyr) 4:1,”, “P30 filtermat” for “Filtermat A”
as §3, §4

[5] = biological target: T5, PKG1α (Homo sapiens, UniProt Q13976); experiment: Millipore radiometric kinase activity assay, PKG1α (h); details: peptide 100 μM
T5 construct: purchased Millipore (radiometric assay service)
T5 sequence (Q13976 1-671): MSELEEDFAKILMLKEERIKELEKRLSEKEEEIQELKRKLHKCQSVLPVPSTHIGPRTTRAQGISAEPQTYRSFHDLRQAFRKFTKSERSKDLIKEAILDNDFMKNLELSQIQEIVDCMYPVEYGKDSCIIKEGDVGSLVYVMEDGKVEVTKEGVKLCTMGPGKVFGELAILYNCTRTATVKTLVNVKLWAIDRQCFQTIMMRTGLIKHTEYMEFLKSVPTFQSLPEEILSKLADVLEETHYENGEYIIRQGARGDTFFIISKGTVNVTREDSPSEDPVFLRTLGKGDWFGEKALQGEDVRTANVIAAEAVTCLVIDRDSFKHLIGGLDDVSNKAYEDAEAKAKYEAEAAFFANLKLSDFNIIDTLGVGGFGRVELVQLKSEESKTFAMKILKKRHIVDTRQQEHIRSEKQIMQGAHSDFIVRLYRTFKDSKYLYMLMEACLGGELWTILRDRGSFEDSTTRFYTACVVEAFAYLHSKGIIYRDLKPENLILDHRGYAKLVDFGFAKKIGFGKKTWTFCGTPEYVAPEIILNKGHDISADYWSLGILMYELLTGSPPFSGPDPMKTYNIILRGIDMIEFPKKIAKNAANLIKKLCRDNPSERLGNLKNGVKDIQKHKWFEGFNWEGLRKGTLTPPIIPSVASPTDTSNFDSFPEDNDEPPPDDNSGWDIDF
Experimental: as §1
as §2, with “PKG1α” for “c-Kit”, “μM cGMP, 200 μM […] [SEQ ID NO: 62],” for “mM MnCl2, 0.1 mg/mL poly(Glu, Tyr) 4:1,”, “P30 filtermat” for “Filtermat A”
IC50 values for inhibitor peptides were determined using Millipore's IC50Profiler Express service. The IC50 value was estimated from a 10-point curve of one-half log dilutions. […]

T1 sequence (P10721 26-976): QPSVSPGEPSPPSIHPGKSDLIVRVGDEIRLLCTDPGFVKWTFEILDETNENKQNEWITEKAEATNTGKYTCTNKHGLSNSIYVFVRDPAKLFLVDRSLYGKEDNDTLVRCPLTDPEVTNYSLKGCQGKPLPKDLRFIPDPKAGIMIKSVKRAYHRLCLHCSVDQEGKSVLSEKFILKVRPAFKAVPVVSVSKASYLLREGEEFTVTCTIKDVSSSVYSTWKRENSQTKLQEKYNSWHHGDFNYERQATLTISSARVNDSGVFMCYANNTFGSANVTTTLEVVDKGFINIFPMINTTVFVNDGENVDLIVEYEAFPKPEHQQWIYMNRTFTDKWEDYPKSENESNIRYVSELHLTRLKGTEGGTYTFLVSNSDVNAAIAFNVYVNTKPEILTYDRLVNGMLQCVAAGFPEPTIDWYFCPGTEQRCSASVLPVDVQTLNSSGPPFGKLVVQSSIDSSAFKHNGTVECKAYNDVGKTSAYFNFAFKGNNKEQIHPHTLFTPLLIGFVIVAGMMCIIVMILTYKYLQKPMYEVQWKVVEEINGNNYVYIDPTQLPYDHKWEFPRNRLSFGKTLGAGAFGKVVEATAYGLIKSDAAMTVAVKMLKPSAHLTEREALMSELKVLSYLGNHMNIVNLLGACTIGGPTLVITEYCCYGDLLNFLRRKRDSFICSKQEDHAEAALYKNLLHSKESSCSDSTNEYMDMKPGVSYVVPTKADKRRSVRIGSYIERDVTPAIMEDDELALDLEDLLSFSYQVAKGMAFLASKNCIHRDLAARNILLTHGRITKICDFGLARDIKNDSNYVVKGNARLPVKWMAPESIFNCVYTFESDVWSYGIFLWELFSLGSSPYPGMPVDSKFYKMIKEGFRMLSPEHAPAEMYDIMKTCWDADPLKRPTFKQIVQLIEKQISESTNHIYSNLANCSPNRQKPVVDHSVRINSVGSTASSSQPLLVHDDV

Sequence | cKit Kinase Activity (%) (+SD %) ([1]; peptide 100 μM) | EphA2 Kinase Activity (%) (+SD %) ([2]; peptide 100 μM) | LIMK1 Kinase Activity (%) (+SD %) ([3]; peptide 100 μM) | Pim-1 Kinase Activity (%) (+SD %) ([4]; peptide 100 μM) | PKG1α Kinase Activity (%) (+SD %) [5] | cKit Kinase Activity (%) (+SD %) ([1]; peptide 30 μM) | EphA2 Kinase Activity (%) (+SD %) ([2]; peptide 30 μM) | LIMK1 Kinase Activity (%) (+SD %) ([3]; peptide 30 μM) | Pim-1 Kinase Activity (%) (+SD %) ([4]; peptide 30 μM)
KAFAKLAARLYRKALARQLGVAA | 31 (6) % | 22 (7) % | 93 (3) % | 1 (2) % | 25 (2) % |  |  |  | 
WLRRIKAWLRRIKALNRQLGVAA | 42 (3) % | 32 (2) % | 92 (2) % | 1 (0) % | 12 (2) % | 23 (2) % | 38 (4) % | 89 (3) % | 5 (1) %
